Where “and” joins values, the source holds several entries; their conditions need not be identical. Equal entries are not always repeated.
How the values were obtained:
[1] = molecular target: FcγRIIIA on natural killer cells of human donor PBMC (human) (UniProt P08637); test: cell-based or functional assay
[2] = molecular target: soluble dimeric FcγRIIB-Fc fusion protein (extracellular domain of FcγRIIB fused to hinge-CH2-CH3 of human IgG2) (human) (UniProt P31994); test: SPR (BIAcore), Fc mutant in ch4-4-20, off rate relative to wild type
Sequence of soluble dimeric FcγRIIB-Fc fusion protein (extracellular domain of FcγRIIB fused to hinge-CH2-CH3 of human IgG2) (human) (P31994 43-217): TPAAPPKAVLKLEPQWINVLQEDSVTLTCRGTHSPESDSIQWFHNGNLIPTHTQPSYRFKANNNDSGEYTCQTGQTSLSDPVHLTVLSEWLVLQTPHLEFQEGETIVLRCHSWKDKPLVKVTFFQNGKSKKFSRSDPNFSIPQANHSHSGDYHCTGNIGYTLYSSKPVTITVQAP

[3] = molecular target: FcγRIIA (CD32A), H131 allotype (human) (UniProt P12318); test: BIAcore
Sequence of FcγRIIA (CD32A), H131 allotype (human) (P12318 34-217 limits assumed): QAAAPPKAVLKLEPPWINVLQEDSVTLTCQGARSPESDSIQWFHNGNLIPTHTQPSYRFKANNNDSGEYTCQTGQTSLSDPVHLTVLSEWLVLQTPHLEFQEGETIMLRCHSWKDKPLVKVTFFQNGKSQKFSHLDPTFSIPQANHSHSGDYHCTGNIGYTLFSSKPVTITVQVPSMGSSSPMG

FcγRIIB (CD32B) (human) [4] = molecular target: FcγRIIB (CD32B) (human) (UniProt P31994); test: BIAcore
Sequence of FcγRIIB (CD32B) (human) (P31994 43-217 limits assumed): as the sequence (P31994 43-217) above

[5] = molecular target: FcγRIIIA (CD16A), F158 allotype (human) (UniProt P08637); test: BIAcore
Sequence of FcγRIIIA (CD16A), F158 allotype (human) (P08637 17-208 limits assumed): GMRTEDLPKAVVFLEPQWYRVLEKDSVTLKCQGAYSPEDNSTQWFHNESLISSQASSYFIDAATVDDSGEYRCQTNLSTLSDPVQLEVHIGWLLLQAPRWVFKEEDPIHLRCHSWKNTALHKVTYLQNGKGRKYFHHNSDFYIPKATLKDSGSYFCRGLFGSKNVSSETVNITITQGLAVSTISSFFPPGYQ

[6] = molecular target: FcγRIIIA (CD16A), V158 allotype (human) (UniProt P08637); test: BIAcore
Sequence of FcγRIIIA (CD16A), V158 allotype (human) (P08637 17-208 F176V limits assumed): as the sequence (P08637 17-208 limits assumed) above, with F160V counted along it

FcγRIIB (CD32B) (human) [7] = molecular target: FcγRIIB (CD32B) (human) (UniProt P31994); test: BIAcore (as Table 27)
[8] = molecular target: FcγRIIIA (CD16A), F158 allotype (human) (UniProt P08637); test: BIAcore (as Table 27)
[9] = molecular target: FcγRIIIA (CD16A), V158 allotype (human) (UniProt P08637); test: BIAcore (as Table 27)
[10] = molecular target: FcγRIIA (CD32A), H131 allotype (human) (UniProt P12318); test: not stated; human FcRs
FcγRIIB (CD32B) (human) [11] = molecular target: FcγRIIB (CD32B) (human) (UniProt P31994); test: not stated; human FcRs
[12] = molecular target: FcγRIIIA (CD16A), V158 allotype (human) (UniProt P08637); test: not stated; human FcRs
[13] = molecular target: FcγRIIIA (CD16A), F158 allotype (human) (UniProt P08637); test: not stated; human FcRs

Sequence of FcγRIIIA on natural killer cells of human donor PBMC (human) (P08637 17-254): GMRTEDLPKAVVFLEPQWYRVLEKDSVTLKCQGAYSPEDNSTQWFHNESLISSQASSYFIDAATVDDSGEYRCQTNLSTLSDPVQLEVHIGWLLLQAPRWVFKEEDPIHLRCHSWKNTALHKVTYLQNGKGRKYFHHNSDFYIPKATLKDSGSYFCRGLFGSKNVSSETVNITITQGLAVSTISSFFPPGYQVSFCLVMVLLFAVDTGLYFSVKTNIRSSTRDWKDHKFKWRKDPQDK

Koff WT/Koff mutant [3] | Koff WT/Koff mutant (FcγRIIB (CD32B) (human) [4]) | Koff WT/Koff mutant [5] | Koff WT/Koff mutant [6] | Koff WT/Koff mutant (FcγRIIB (CD32B) (human) [7]) | Koff WT/Koff mutant [8] | Koff WT/Koff mutant [9] | Substance | further results
2.44 | 0.89 | 1.65 | 1.38 | 0.89 | 1.65 | 1.38 | immunoglobulin with Fc variant D270E, P396L (antibody) | –
1.49 | 1.05 | 3.12 | – | 1.05 | 3.12 | – | immunoglobulin with Fc variant F243I, R292P, Y300L, V305I, P396L (antibody) | –
1.44 | 0.38 | 1.64 | 1.75 | 0.38 | 1.64 | 1.75 | immunoglobulin with Fc variant F243L, R255L, D270E, P396L (antibody) | –
1.22 | 2.35 | 1.81 | 1.49 | 2.35 | 1.81 | 1.49 | immunoglobulin with Fc variant K392T, P396L (antibody) | –
1.84 | 0.8 | 1.16 | 2.44 | – | – | – | immunoglobulin with Fc variant P247L, D270E, Y300L, N421K (antibody) | –
0.63 | 1.33 | 1.19 | 1.19 | 1.33 | 1.19 | 1.19 | immunoglobulin with Fc variant P396L, Q419H (antibody) | –
1.34 | 2.22 | 1.39 | 1.09 | 2.22 | 1.39 | 1.09 | immunoglobulin with Fc variant R255L, P396L (antibody) | –
0.14 | 0.25 | – | 1.54 | 0.25 | – | 1.54 | immunoglobulin with Fc variant R292G (antibody) | –
1.56 and 0.75 | – | 2.11 and 1.28 | 1.59 and 1.32 | – | 1.28 and 2.11 | 1.32 and 1.59 | immunoglobulin with Fc variant R292P, V305I (antibody) | –
1.79 | 0.37 | 1.37 | 1.14 | 0.37 | 1.37 | 1.14 | immunoglobulin with Fc variant V284M, R292P, K370N (antibody) | –

More lines, now with the values behind:

Substance | Koff WT/Koff mutant [3] | Koff WT/Koff mutant (FcγRIIB (CD32B) (human) [4]) | Koff WT/Koff mutant [5] | Koff WT/Koff mutant [6] | Koff WT/Koff mutant (FcγRIIB (CD32B) (human) [7]) | Koff WT/Koff mutant [8] | Koff WT/Koff mutant [9] | further results
ch4-4-20 MgFc42 (D221E, D270E, V308A, Q311H, P396L, G402D) (antibody) | – | – | – | – | – | – | – | Relative rate of lysis (ADCC, vs wild type ch4-4-20) [1]: 3.17
ch4-4-20 MgFc44 (K334N, P396L) (antibody) | – | – | – | – | – | – | – | Relative rate of lysis (ADCC, vs wild type ch4-4-20) [1]: 2.43
ch4-4-20 MgFc46 (P217S, P396L) (antibody) | – | – | – | – | – | – | – | Relative rate of lysis (ADCC, vs wild type ch4-4-20) [1]: 2.04
ch4-4-20 MgFc47 (K210M, P396L) (antibody) | – | – | – | – | – | – | – | Relative rate of lysis (ADCC, vs wild type ch4-4-20) [1]: 2.02
ch4-4-20 MgFc48 (V379M, P396L) (antibody) | – | – | – | – | – | – | – | Relative rate of lysis (ADCC, vs wild type ch4-4-20) [1]: 2.01
ch4-4-20 MgFc50 (P247S, P396L) (antibody) | – | – | – | – | – | – | – | Relative rate of lysis (ADCC, vs wild type ch4-4-20) [1]: 2.1
ch4-4-20 MgFc51 (Q419H, P396L) (antibody) | – | – | – | – | – | – | – | Relative rate of lysis (ADCC, vs wild type ch4-4-20) [1]: 2.24
ch4-4-20 MgFc52 (V240A, P396L) (antibody) | – | – | – | – | – | – | – | Relative rate of lysis (ADCC, vs wild type ch4-4-20) [1]: 2.35
ch4-4-20 MgFc54 (F243L, V305I, A378D, F404S, P396L) (antibody) | – | – | – | – | – | – | – | Relative rate of lysis (ADCC, vs wild type ch4-4-20) [1]: 3.59
ch4-4-20 MgFc55 (R255L, P396L) (antibody) | – | – | – | – | – | – | – | Relative rate of lysis (ADCC, vs wild type ch4-4-20) [1]: 2.79
ch4-4-20 MgFc57 (L242F, P396L) (antibody) | – | – | – | – | – | – | – | Relative rate of lysis (ADCC, vs wild type ch4-4-20) [1]: 2.4
ch4-4-20 MgFc59 (K370E, P396L) (antibody) | – | – | – | – | – | – | – | Relative rate of lysis (ADCC, vs wild type ch4-4-20) [1]: 2.47
ch4-4-20 MgFc60 (P217S, P396L) (antibody) | – | – | – | – | – | – | – | Relative rate of lysis (ADCC, vs wild type ch4-4-20) [1]: 1.44
ch4-4-20 MgFc61 (A330V) (antibody) | – | – | – | – | – | – | – | Koff WT/Mut [2]: 0.61
ch4-4-20 MgFc62 (R292G) (antibody) | – | – | – | – | – | – | – | Koff WT/Mut [2]: 0.67
ch4-4-20 MgFc63 (S298N, K360R, N361D) (antibody) | – | – | – | – | – | – | – | Koff WT/Mut [2]: 0.67
ch4-4-20 MgFc64 (E233G) (antibody) | – | – | – | – | – | – | – | Koff WT/Mut [2]: 0.54
ch4-4-20 MgFc65 (N276Y) (antibody) | – | – | – | – | – | – | – | Koff WT/Mut [2]: 0.64

Substance | Koff WT/Koff mutant [3] | Koff WT/Koff mutant (FcγRIIB (CD32B) (human) [4]) | Koff WT/Koff mutant [5] | Koff WT/Koff mutant [6] | Koff WT/Koff mutant (FcγRIIB (CD32B) (human) [7]) | Koff WT/Koff mutant [8] | Koff WT/Koff mutant [9] | further results
immunoglobulin with Fc variant D270E (antibody) | 2.24 | 0.39 | 1.48 | 1.25 | 0.39 | 1.48 | 1.25 | –
immunoglobulin with Fc variant D270E, K392T, P396L (antibody) | – | – | – | – | – | – | – | fold change vs wild-type affinity [10]: 0.9 fold; fold change vs wild-type affinity (FcγRIIB (CD32B) (human) [11]): -0.3 fold; fold change vs wild-type affinity [12]: 0.8 fold
immunoglobulin with Fc variant D270E, P396L, Q419H (antibody) | 1.7 | 0.68 | – | 1.64 | 0.68 | – | 1.64 | –
immunoglobulin with Fc variant F243L, D270E, G316D, R416G (antibody) | 1.22 | 0.2 | 1.34 | 1.5 | 0.2 | 1.34 | 1.5 | –
immunoglobulin with Fc variant F243L, D270E, K392T, P396L (antibody) | 1.7 | 0.44 | 2.44 | 3.16 | 0.44 | 2.44 | 3.16 | –
immunoglobulin with Fc variant F243L, D270E, P396L, Q419H (antibody) | 1.11 | 0.26 | 1.15 | 1.46 | 0.26 | 1.15 | 1.46 | –
immunoglobulin with Fc variant F243L, P247L, D270E, N421K (antibody) | 0.98 | 0.32 | 3.45 | 2.3 | 0.32 | 3.45 | 2.3 | –
immunoglobulin with Fc variant F243L, P247L, N421K (antibody) | 0.39 | 0.17 | 1.71 | 1.89 | 0.17 | 1.71 | 1.89 | –
immunoglobulin with Fc variant F243L, P396L (antibody) | 1.5 | 2.22 | 1.6 | 1.49 | 2.22 | 1.6 | 1.49 | –
immunoglobulin with Fc variant F243L, R292P, P396L (antibody) | – | – | – | – | – | – | – | fold change vs wild-type affinity [10]: 0.4 fold; fold change vs wild-type affinity (FcγRIIB (CD32B) (human) [11]): -1.6 fold; fold change vs wild-type affinity [13]: 2.4 fold; fold change vs wild-type affinity [12]: 5.3 fold
immunoglobulin with Fc variant F243L, R292P, V305I, P396L (antibody) | – | – | – | – | – | – | – | fold change vs wild-type affinity [10]: -0.3 fold; fold change vs wild-type affinity (FcγRIIB (CD32B) (human) [11]): -1.6 fold; fold change vs wild-type affinity [12]: -3 fold
immunoglobulin with Fc variant P247L, D270E, N421K (antibody) | – | – | – | – | – | – | – | fold change vs wild-type affinity [10]: 1 fold; fold change vs wild-type affinity (FcγRIIB (CD32B) (human) [11]): -0.7 fold; fold change vs wild-type affinity [12]: 0.9 fold
immunoglobulin with Fc variant R255L, D270E, P396L (antibody) | – | – | – | – | – | – | – | fold change vs wild-type affinity (FcγRIIB (CD32B) (human) [11]): -0.1 fold; fold change vs wild-type affinity [13]: 0.7 fold; fold change vs wild-type affinity [12]: 0.3 fold
immunoglobulin with Fc variant R255L, D270E, R292G, P396L (antibody) | 1.05 | 0.65 | – | – | 0.65 | – | – | –
immunoglobulin with Fc variant R255L, D270E, Y300L, P396L (antibody) | 2.6 | 0.87 | 1.74 | 1.52 | 0.87 | 1.74 | 1.52 | –
immunoglobulin with Fc variant R292P (antibody) | – | – | – | – | – | – | – | fold change vs wild-type affinity [10]: -0.5 fold; fold change vs wild-type affinity (FcγRIIB (CD32B) (human) [11]): -2.7 fold; fold change vs wild-type affinity [13]: 0.6 fold
immunoglobulin with Fc variant R292P, V305I, P396L (antibody) | 1.5 | 0.92 | 1.9 | 1.85 | 0.92 | 1.9 | 1.85 | –

From patent US20120219551A1
